Patent US20260226144A1 (NEPHRIS, published 2026)

T1: mouse NBL1 (mouse, UniProt Q61477 17-178, limits assumed)
T1 sequence (looked up): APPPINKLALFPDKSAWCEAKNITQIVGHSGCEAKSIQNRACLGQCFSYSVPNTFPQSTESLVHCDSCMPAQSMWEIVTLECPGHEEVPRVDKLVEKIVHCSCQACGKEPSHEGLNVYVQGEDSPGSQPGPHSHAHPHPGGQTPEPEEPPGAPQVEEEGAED

T2: native murine NBL1 (murine, UniProt Q61477 17-178)
T2 construct: Endogenous protein, not recombinant; also called murine plasma NBL1; murine splenocyte NBL1
T2 sequence (looked up): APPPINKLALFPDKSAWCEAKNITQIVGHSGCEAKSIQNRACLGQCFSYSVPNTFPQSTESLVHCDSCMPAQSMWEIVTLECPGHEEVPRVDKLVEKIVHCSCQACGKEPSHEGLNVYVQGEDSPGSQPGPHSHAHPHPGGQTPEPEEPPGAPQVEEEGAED

T3: native human NBL1 (human, UniProt P41271 17-181, limits assumed)
T3 construct: Endogenous protein in permeabilized PBMCs of healthy volunteers; also called native human NBL1 found in human PBMCs
T3 sequence (looked up): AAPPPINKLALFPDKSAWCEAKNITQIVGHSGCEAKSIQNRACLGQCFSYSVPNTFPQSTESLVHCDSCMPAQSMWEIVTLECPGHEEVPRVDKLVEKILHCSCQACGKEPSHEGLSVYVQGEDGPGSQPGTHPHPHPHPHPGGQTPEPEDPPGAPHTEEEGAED


How the values were obtained:
[1] = target: T1, mouse NBL1; assay: ELISA, IgG1 format
[2] = target: T2, native murine NBL1; assay: immunotarget assay on permeabilized murine splenocytes, FACS
[3] = target: T3, native human NBL1; assay: immunotargeted assay on permeabilized human PBMCs, FACS
Source text: PBMCs were isolated from blood samples of healthy volunteers.

[4] = target: T2, native murine NBL1; assay: sandwich ELISA on native murine plasma NBL1
Procedure: Binding of the mAbs to native murine plasma NBL1 was performed using a sandwich ELISA, as illustrated in FIG. 11A.

binding result [1] | binding result [2] | binding result [3] | binding result [4] | Binder
binds | binds | binds | – | Antibody YU1019-B06 (antibody, human IgG1, V domains shown) VH: EVQLLESGGGVVQPGRSLRLSCAASGFTFSSYAMHWVRQAPGKGLEWVAVISYDGSNKYYADSVKGRFTISRDNSKNTLYLQMNSLRAEDTAVYYCASPVLRYFDWLPNYWGQGTLVTVSS VL: not shown
binds | – | – | – | Antibody YU1018-E07 (antibody, V domains shown) VH: EVQLLESGGGVVQPGRSLRLSCAASGFTFSSYAMHWVRQAPGKGLEWVAVISYDGSNKYYADSVKGRFTISRDNSKNTLYLQMNSLRAEDTAVYYCASPVLRYFDWLPNYWGQGTTVTVSS VL: not shown
binds | – | – | – | Antibody YU1018-G01 (antibody, human IgG1, V domains shown) VH: QVQLVQSGAEVKKPGASVKVSCKASGYTFTSYAMHWVRQAPGQRLEWMGWINAGNGNTKYSQKFQGRVTITRDTSASTAYMELSSLRSEDTAVYYCARGRELLTFDYWGQGTLVTVSS VL: not shown
binds | – | – | – | Antibody YU1018-C11 (antibody, V domains shown) VH: QVQLVQSGGGLVQPGGSLRLSCAASGFTFSSYAMSWVRQAPGKGLEWVSAISGSGGSTYYADSVKGRFTISRDNSKNTLYLQMNSLRAEDTAVYYCARGGFWGSYRYWSAAFDIWGQGTMVTVSS VL: not shown
binds | – | – | – | Antibody YU1018-E01 (antibody, human IgG1, V domains shown) VH: QVQLVQSGAEVKKPGASVKVSCKASGYTFTSYGISWVRQAPGRGLEWMGWISAYNGNTNYAQKLQGRVTMTTDTSTSTAYMELRSLRSDDTAVYYCARGPRDGYNDYWGQGTLVTVSS VL: not shown
binds | – | – | – | Antibody YU1018-D12 (antibody, V domains shown) VH: EVQLVQSGAEVKKPGASVKVSCKASGYTFTSYGISWVRQAPGQGLEWMGWISAYNGNTNYAQKLQGRVTMTTDTSTSTAYMELRSLRSDDTAVYYCARDVGYSYGIFDYWGQGTLVTVSS VL: not shown
binds | binds | binds | – | Antibody YU1018-E04 (antibody, human IgG1, V domains shown) VH: QVQLVQSGAEVKKPGESLKISCKGSGYSFTSYWIGWVRQMPGKGLEWMGIIYPGDSDTRYSPSFQGQVTISADKSISTAYLQWSSLKASDTAMYYCARAIVGATSGYWFDPWGQGTLVTVSS VL: not shown
binds | – | binds | binds | Antibody YU1019-A12 (antibody, human IgG1, V domains shown) VH: EVQLLESGPGLVKPSQTLSLTCTVSGGSISSGDYYWSWIRQPPGKGLEWIGYIYYSGSTYYNPSLKSRVTISVDTSKNQFSLKLSSVTAADTAVYYCARGRRLLLFHWGQGTTVTVSS VL: QSVLTQPPSVSAAPGQKVTISCSGSGSSIGNNYVSWYQQVPGTPPKLLIYDNNKRASGIPDRFSGSKSGTSATLGITGLQTGDEADYYCGTWDNSLSAVVFGGGTKLTVL
binds | – | – | – | Antibody YU1018-D06 (antibody, human IgG1, V domains shown) VH: QVQLVESGPGLVKPSQTLSLTCTVSGGSISSGGYYWSWIRQHPGKGLEWIGYIYYSGSTYYNPSLKSRVTISVDTSKNQFSLKLSSVTAADTAVYYCARSGAAGIPWFDPWGQGTLVTVSS VL: QSVLTQPPSVSAAPGQKVTISCSGSSSNIGNNYVSWYQQLPGTAPKLLIYENNERPSGIPDRLSGSKSGTSATLAITGLQTGDEADYYCGTWDSSLSAVVFGGGTKLTVL
binds | – | – | – | Antibody YU1018-D08 (antibody, human IgG1, V domains shown) VH: QVQLVQSGAEVKKPGSSVKVSCKASGGTFSSYAISWVRQAPGQGLEWMGGIIPIFGTANYAQKFQGRVTITADKSTSTAYMELSSLRSEDTAVYYCARDRYYDSSGYYLMDPWGQGTLVTVSS VL: not shown
